These results are taken from a protein production outcome set (Wang et al. 2014).

The nature of this data set: label from the status in PepcDB records.
“MSLSVAIIGPGAVGTTIAYELQQSLPHTTLIGRHAKTITYYTVPHAPAQDIVVKGYEDVTNTFDVIIIAVKTHQLDAVIPHLTYLAHEDTLIILAQNGYGQLEHIPFKNVCQAVVYISGQKKGDVVTHFRDYQLRIQDNALTRQFRDLVQDSQIDIVLEANIQQAIWYKLLVNLGINSITALGRQTVAIMHNPEIRILCRQLLLDGCRVAQAEGLNFSEQTVDTIMTIYQGYPDEMGTSMYYDIVHQQPLEVEAIQGFIYRRAREHNLDTPYLDTIYSFLRAYQQNEGHHHHHH”: the protein production entry is on record as “not failed”.

On to “MNTARANRENGAGNIYIGFGDSQLSLMDSHQARPEPVHTVCSKPPLKRPPSREEHLRQRLVKTIHSQRIISGKNRLSNPPRMANPQANSIIGISTYFGPTN”, for which the protein production result is listed as “failed”.

With “MLSRILEKYRENGIQGIVLALISRFPGVRAVCVYYVYRLPFDKLVRKQLSVGNLKVVQVKSDSMGDLIRVQDKPDIFGERFQMGHYGFVAYVNNDPVAYLWGQEGPVHVERRFGFEVPIKDNQVFYYDSYTIPEWRKSGVGRALIQESIDFFKNGLGKSELIAIIETGNLVSQKTYERMGFVREAMHIHLDIIGKKINKQLARMVTQ”, the protein production entry was “failed”.

Turning to “MVKHHHLYELSPMVTGWTICVMVLRIYKKFLNLNAFELRLVLADEWGTQIEATIGPRFSAFYFDRIKENQWKTITTFLVRPNCEAIKTTPHQFRILFMDHTIVTSSTPRETGLLNKFTPFDYIVDDVVGNDTLVDLIGALVNVGILTNTASNENDMAGFKLPFTIMDKNKDTLVCEAYGEIAVDLEKRFRAFRKNNVVIALAWWKILRFYPVAAIPEVYLLAPMLAKIVSYVAESGVDSLKSFVKAGLLFKAAVYSKETLSCVRLDRSWYFMLAFHMCELQEAIAILDGIKDVFPHAGLLYIMLHSCAGSIPWEFYRMYKRRYYKFSEVDLFADKLMFHINEVGPRRQGTYKNS”, the protein production result is “failed”.

Turning to “MKDMQTKIVMIGILLSTGIMLRAQDNGGCEDCPAFNAGGKVEVRGVKERIIGDLSQPVAVRVRTLIQQMTLAEKVAQLVSESDSIPRLNLPAYNYWNECLHGVARAGEVTVFPQAINLASTWDTVLVKRVASAISTEARLKYLEIGKGLTYWSPTINMARDPRWGRNEETYGEDPHLTSRLGVAFVKGLQGDHPTYLKTVATIKHFVANNEENNRFSSSSQIPTKQLYEYYFPAYEACVKEANAQSVMTAYNAFNGVPPSGSHWLLDDVLRKEWGFDGFVVSDCGAIGVMNWQHRVVNSLEEAAALGVNSGCDLECGTTYKEKLVQAVEQGLISEAAIDRALTRVLTARFKLGEFDPMELVPYNHYDKKLLAGKKFAELAYEAAVKSVVLLKNDALLPLNKEKIKSVAVVGPFADYNYLGGYSGQPPYSVSLLKGVKELIGKKGKVTYLNGMGTSADSIAQVVKGADIVLVALGSDEKMARENHDMPSIYLPEEQEKFLKKIYQVNPRIVLVFHTGNPLTSEWADTHILAIMQAWYPGQEAGRALANLLFGNENPSGKLPMTIYKTEEQLPDILDFDMWKGRTYRYMKGEPLYGFGHGLSYTSFEFDNIQGNDTLQPDAILQCSVELSNSGQLAGEEVVQVYVSRENTPVYTYPLKKLVAFKKVKLASGEKKKVDFTIAPRELSVWEDGKWRMLSGKYTLFIGSGQPGLAKGITKGFEVKIR”, the protein production result is recorded as “failed”.

As for “MHVLNILWVVFGIGLMLVLNLKFKINSMVALLVAALSVGMLAGMDLMSLLHTMKAGFGNTLGELAIIVVFGAVIGKLMVDSGAAHQIAHTLLARLGLRYVQLSVIIIGLIFGLAMFYEVAFIMLAPLVIVIAAEAKIPFLKLAIPAVAAATTAHSLFPPQPGPVALVNAYGADMGMVYIYGVLVTIPSVICAGLILPKFLGNLERPTPSFLKADQPVDMNNLPSFGVSILVPLIPAIIMISTTIANIWLVKDTPAWEVVNFIGSSPIAMFIAMVVAFVLFGTARGHDMQWVMNAFESAVKSIAMVILIIGAGGVLKQTIIDTGIGDTIGMLMSHGNISPYIMAWLITVLIRLATGQGVVSAMTAAGIISAAILDPATGQLVGVNPALLVLATAAGSNTLTHINDASFWLFKGYFDLSVKDTLKTWGLLELVNSVVGLIIVLIISMVA”, the protein production result is on record as “failed”.

Take “MTYVLYGIKACDTMKKARTWLDEHKVAYDFHDYKAVGIDREHLRRWCAEHGWQTVLNRAGTTFRKLDEAQKADLDEAKAIELMLAQPSMIKRPVLELGGRTLVGFKPDAYAAALA”: the protein production entry is “not failed”.

Take “MWAYLAILAMAYVTYKTKALDIKGIIAALLLGVIIVTLGGIIPFIALLAFLVMGTLATKFRYREKRKMGLIDESIRSVGNVLGNGLAPLLFVIVEFIIKQDFGWAGVLSSIAVANADTLASEIGKVFGKNPRIITNLKPAKPGEEGAVSFAGEFAALLGAFVISLFGLSLTEYGIQMIVSVTLAGLIGANIDSLIGATFEKNGYFGNNMTNFIATLLGGLLGMALFLLLV”: the protein production result was “failed”.

For the sequence “MLSGVGAPVGKQMLAGTEVAAMQINKAGGLLGREVELVIRDDKYNSSESVAVARELAGDGINLLLGGSQTVTALGLAPLAPELNMAVMIVAAAGMPVTHELFNPNIFRATANNYTQYSSLGRVLIEQNPDVRTWVSLAPDGDFGRDSALFFGKAVEKYAPGEKPTVLDTIYTQATATDFRTQINQLMSSDAEGLYIGIAASAQISFFQQARSVGLYDKFKAIGEVGNGDITGKAMGRNTHPNLWSVCHWIYNAEPFASNPVSKQLYEDYVTLKGDEMPSAQVAAGHRAAMAIFEGIRAAGSTETEAVLAAIEDVEFETVGGPVSFRKEDHQLVNTNYYSQMGPSREEPFFAFNKVVSIDAAEMIEPATPGKAFDISELPQLEHHHHHH”, the protein production entry is given as “failed”.

Regarding “MSGFSPELIDYLEGKISFEEFERRREERKTREKKSLQEKGKLSAEENPDDSEVPSSSGINSTKSQDKDVNEGETSDGVRKSVHKVFASMLGENEDDEEEEEEEEEEEEEEETPEQPTAGDVFVLEMVLNRETKKMMKEKRPRSKLPRALRGLMGEANIRFARGEREEAILMCMEIIRQAPLAYEPFSTLAMIYEDQGDMEKSLQFELIAAHLNPSDTEEWVRLAEMSLEQDNIKQAIFCYTKALKYEPTNVRYLWERSSLYEQMGDHKMAMDGYRRILNLLSPSDGERFMQLARDMAKSYYEANDVTSAINIIDEAFSKHQGLVSMEDVNIAAELYISNKQYDKALEIITDFSGIVLEKKTSEEGTSEENKAPENVTCTIPDGVPIDITVKLMVCLVHLNILEPLNPLLTTLVEQNPEDMGDLYLDVAEAFLDVGEYNSALPLLSALVCSERYNLAVVWLRHAECLKALGYMERAAESYGKVVDLAPLHLDARISLSTLQQQLGQPEKALEALEPMYDPDTLAQDANAAQQELKLLLHRSTLLFSQGKMYGYVDTLLTMLAMLLKVAMNRAQVCLISSSKSGERHLYLIKVSRDKISDSNDQESANCDAKAIFAVLTSVLTKDDWWNLLLKAIYSLCDLSRFQEAELLVDSSLEYYSFYDDRQKRKELEYFGLSAAILDKNFRKAYNYIRIMVMENVNKPQLWNIFNQVTMHSQDVRHHRFCLRLMLKNPENHALCVLNGHNAFVSGSFKHALGQYVQAFRTHPDEPLYSFCIGLTFIHMASQKYVLRRHALIVQGFSFLNRYLSLRGPCQESFYNLGRGLHQLGLIHLAIHYYQKALELPPLVVEGIELDQLDLRRDIAYNLSLIYQSSGNTGMAQTLLYTYCSI”, the protein production result is reported as “failed”.
